The values below come from paper PMC10885436, “A novel AA14 LPMO from Talaromyces rugulosus with bifunctional cellulolytic/hemicellulolytic activity boosted cellulose hydrolysis” (Biotechnology for Biofuels and Bioproducts, 2024).

Substrate in the series: COc1cccc(OC)c1O
Description: purified protein. The note with it: co-substrate H2O2 fixed at 100 uM (below its Km, authors call kinetics insufficient), Cu(II)-saturated enzyme, 100 mM sodium phosphate pH 7.0, 37 C. The format is biochemical, Talaromyces rugulosus.

B1: TrAA14A (Talaromyces rugulosus) (protein)
chain: HVVAWHPGMYCLGGNDTSVDDPNTNLAVNPLWDLPKSKWWFQADRGCDKAPPVDGVFLELPAGQNFTTELAHNRAQTTLSFNGQYAGEWPDGKDHPEDWSGTGTPPGCIQDDGAIHTNNQTMAGGTVFAISYQSDMSQVTMENLVVFSVLEHTPWKRIATYEVPADLPPCPDAGCICAWGWVPQGCGEPNMYMAGYKCKVTGSSSTKQLAQAQVPKYCANDTSECVGGAKQILVMNQADGNNVVAPDNDFVAYNEKWGFQNGAQNDIFM
notes: about 60 kDa glycosylated, about 30 kDa after Endo H; no dCTR
Consider B1, for which the Km is 0.79 mM and the kcat worked out at 1.32 s⁻¹.

As a reminder, the Km is the substrate concentration at which the rate is half of its maximum. The term kcat denotes the maximal rate divided by the concentration of active sites.
